The values below come from patent CN112552406A (WUJIANG NOVOPROTEIN SCIENT INC, dated 2021).

Assay [1] concerns the target T1, 人CD73 on SK-OV-3细胞 (人卵巢腺癌细胞) (human, UniProt P21589 27-549).
T1 construct: whole, on cells; CD73-positive human cell line; also called SK-OV-3细胞上CD73; 人CD73阳性细胞
T1 sequence (looked up): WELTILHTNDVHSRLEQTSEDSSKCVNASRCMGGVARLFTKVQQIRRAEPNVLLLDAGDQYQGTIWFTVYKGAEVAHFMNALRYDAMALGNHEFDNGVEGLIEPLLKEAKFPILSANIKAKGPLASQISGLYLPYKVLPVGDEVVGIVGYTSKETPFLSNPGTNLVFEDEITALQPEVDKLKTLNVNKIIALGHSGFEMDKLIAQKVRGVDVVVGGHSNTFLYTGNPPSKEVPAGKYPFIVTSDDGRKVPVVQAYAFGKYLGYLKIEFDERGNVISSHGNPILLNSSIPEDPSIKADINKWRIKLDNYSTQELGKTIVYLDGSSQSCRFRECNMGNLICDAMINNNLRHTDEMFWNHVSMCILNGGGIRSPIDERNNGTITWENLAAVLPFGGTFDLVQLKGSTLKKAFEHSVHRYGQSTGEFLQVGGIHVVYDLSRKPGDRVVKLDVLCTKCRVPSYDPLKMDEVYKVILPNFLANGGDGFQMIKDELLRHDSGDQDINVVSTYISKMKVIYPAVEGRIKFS
The assay can be described thus: flow cytometry on SK-OV-3 cells, Anti-hFC-APC detection.

Assay [2] concerns the target T2, 猴CD73全长 on CHOK1-cynoCD73细胞 (猴 (cyno), UniProt A0A2K5V5U7 27-549).
T2 construct: whole, on cells; also called 猴CD73阳性细胞
T2 sequence: T1 sequence (looked up) with M199T, T350A, V466I
Briefly: flow cytometry on CHOK1-cynoCD73 cells, Anti-hFC-APC detection.

The next assay deals with T3, 重组人CD73蛋白 (human, UniProt P21589 27-547).
T3 construct: also called rhCD73; 重组hCD73蛋白
T3 sequence (looked up): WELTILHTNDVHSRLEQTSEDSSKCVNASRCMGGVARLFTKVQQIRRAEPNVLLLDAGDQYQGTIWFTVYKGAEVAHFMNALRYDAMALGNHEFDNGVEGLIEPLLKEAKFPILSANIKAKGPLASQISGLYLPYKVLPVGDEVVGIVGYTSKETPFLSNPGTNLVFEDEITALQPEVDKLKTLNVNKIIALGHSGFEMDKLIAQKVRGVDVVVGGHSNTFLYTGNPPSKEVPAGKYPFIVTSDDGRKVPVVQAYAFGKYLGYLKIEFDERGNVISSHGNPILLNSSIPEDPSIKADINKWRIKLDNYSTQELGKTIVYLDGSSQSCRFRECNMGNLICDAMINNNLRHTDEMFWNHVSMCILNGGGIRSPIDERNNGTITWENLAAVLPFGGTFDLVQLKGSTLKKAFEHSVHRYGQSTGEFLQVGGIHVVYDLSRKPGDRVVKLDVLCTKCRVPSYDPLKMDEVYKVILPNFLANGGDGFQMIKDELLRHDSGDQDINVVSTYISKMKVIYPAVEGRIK
Briefly: Biacore (SPR), CQ137 immobilised, CD73 protein 2.5nM-40nM.

A further assay deals with T4, 重组猴CD73蛋白 (猴 (monkey; cyno per the cell line name), UniProt A0A2K5V5U7 27-547).
T4 sequence: T3 sequence (looked up) with M199T, T350A, V466I
Briefly: ELISA, recombinant monkey CD73 coated at 3μg/ml. In general terms: In an ELISA, binding on a coated surface is turned into a signal by an enzyme label.

Assay [3] deals with T1, 人CD73 on SK-OV-3细胞 (人卵巢腺癌细胞). The assay can be described thus: cell-based or functional assay.
Assay [4] has as its target T2, 猴CD73全长 on CHOK1-cynoCD73细胞. The assay can be described thus: cell-based or functional assay.
In assay [5] the target is T1, 人CD73 on SK-OV-3细胞 (人卵巢腺癌细胞). Briefly: flow cytometry on SK-OV-3 cells.

Substitutions are numbered along the chain they refer to.

B1: MEDI-9447 (antibody, V domains shown)
VH: EVQLLESGGGLVQPGGSLRLSCAASGFTFSSYAYSWVRQAPGKGLEWVSAISGSGGRTYYADSVKGRFTISRDNSKNTLYLQMNSLRAEDTAVYYCARLGYGRVDEWGRGTLVTVSS
VL: QSVLTQPPSASGTPGQRVTISCSGSLSNIGRNPVNWYQQLPGTAPKLLIYLDNLRLSGVPDRFSGSKSGTSASLAISGLQSEDEADYYCATWDDSHPGWTFGGGTKLTVLG
As to B1, the EC50 in assay [1] came out at 9.63 ng/mL; in assay [2], 4.12 ng/mL.

B2: CQ137抗体蛋白 (人鼠嵌合的抗CD73全长抗体) (antibody, human IgG1, kappa, V domains shown)
VH: EVQLQQSGPELVKPGASVKISCKASGYSFTGYYIHWVKQSHVKSLEWIGRINPYNGATTYNQNFKDKASLTVDKSSSTAYMELHSLTSEDSAVYYCARFHYGAPDYWGQGTTLTVSS
VL: DILMTQSPSSMYASLGERVTITCKASQDINTYLTWFQQKPGKSPKTLIYRANILVDGVPSRFSGSGSGQDYSLTISSLEFEDMGIYYCLQYDEFPLTFGAGTKLELKR
Take B2: the EC50 in assay [1] amounted to 0.588 ng/mL; with 重组猴CD73蛋白, 217 ng/mL; in assay [2] it was 0.0999 ng/mL. In the assay with 重组人CD73蛋白, this molecule had a Kd of 0.0865 nM. Further, the “IC50, SK-OV-3细胞上CD73酶活抑制 (CellTiter-Glo)” value in assay [3] stood at 371 ng/mL. Besides, the “IC50, CHOK1-cynoCD73细胞上CD73酶活抑制 (CellTiter-Glo)” value in assay [4] was 990 ng/mL.

B3: 人源化CQ137单抗(137-2) (antibody, V domains shown)
VH: QVQLVQSGAEVKKPGASVKVSCKASGYSFTGYYIHWVRQAPGQGLEWMGRINPYNGATTYNQNFKDRVTMTVDKSTSTAYMELRSLRSDDTAVYYCARFHYGAPDYWGQGTLVTVSS
VL: DIQMTQSPSSLSASVGDRVTITCKASQDINTYLTWFQQKPGKAPKSLIYRANILVDGVPSRFSGSGSGTDFTLTISSLQPEDFATYYCLQYDEFPLTFGGGTKVEIKR
notes: also called hCQ137
Turning to B3, in assay [5], the binding result is given as “binds”.

B4: 人源化CQ137单抗(137-1) (antibody, V domains shown)
VH: B3 VH with S28T
VL: B3 VL with S46T, T69Q, F71Y
notes: also called hCQ137
Regarding B4, the binding result in assay [5] is “binds”.

B5: 人源化CQ137单抗(137-3) (antibody, V domains shown)
VH: B3 VH with A16S, M70I, R84S, D89E
VL: B3 VL with F36Y, S46T
notes: also called hCQ137
Turning to B5, the binding result in assay [5] was “binds”.

For orientation: EC50 means the midpoint of the concentration-response curve. What is called Kd is the free concentration of one partner at which half of the binding sites on the other are occupied at equilibrium, for simple one-to-one binding.
